Experimental data reported in PMC3008307 (Virology, 2010).

Assays:
[1] = molecular target: 6-His-cdk3 (human, UniProt Q00526 1-305); experiment: pull-down
[2] = molecular target: 6-His-cdk8 (human, UniProt P49336 1-464); experiment: pull-down
Chain of 6-His-cdk8 (P49336 whole entry): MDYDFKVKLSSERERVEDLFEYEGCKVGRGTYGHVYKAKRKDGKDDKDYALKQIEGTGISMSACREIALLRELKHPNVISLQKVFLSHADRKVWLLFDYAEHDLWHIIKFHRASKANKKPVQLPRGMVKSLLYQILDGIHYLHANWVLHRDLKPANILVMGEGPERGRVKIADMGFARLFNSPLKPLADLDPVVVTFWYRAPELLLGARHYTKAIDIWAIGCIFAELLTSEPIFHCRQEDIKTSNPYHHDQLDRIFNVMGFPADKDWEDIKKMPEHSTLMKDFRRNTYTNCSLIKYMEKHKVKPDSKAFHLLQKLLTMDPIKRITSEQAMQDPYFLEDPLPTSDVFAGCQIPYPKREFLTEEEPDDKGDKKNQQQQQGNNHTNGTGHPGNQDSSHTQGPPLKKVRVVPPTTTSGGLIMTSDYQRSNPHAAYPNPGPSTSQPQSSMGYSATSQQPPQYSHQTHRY

Chain of 6-His-cdk3 (Q00526 whole entry): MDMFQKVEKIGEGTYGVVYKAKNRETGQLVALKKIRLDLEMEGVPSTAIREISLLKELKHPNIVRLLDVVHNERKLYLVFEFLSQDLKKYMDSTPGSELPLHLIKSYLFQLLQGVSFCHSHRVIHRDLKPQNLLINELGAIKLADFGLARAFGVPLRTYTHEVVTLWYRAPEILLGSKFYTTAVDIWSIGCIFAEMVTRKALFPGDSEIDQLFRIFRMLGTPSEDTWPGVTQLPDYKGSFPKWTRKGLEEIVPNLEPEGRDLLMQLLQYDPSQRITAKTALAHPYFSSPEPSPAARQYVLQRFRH

Binder | binding result [1] | binding result [2]
GST-cyclin C (natural protein, human, UniProt P24863 1-283, looked up) MAGNFWQSSHYLQWILDKQDLLKERQKDLKFLSEEEYWKLQIFFTNVIQALGEHLKLRQQVIATATVYFKRFYARYSLKSIDPVLMAPTCVFLASKVEEFGVVSNTRLIAAATSVLKTRFSYAFPKEFPYRMNHILECEFYLLELMDCCLIVYHPYRPLLQYVQDMGQEDMLLPLAWRIVNDTYRTDLCLLYPPFMIALACLHVACVVQQKDARQWFAELSVDMEKILEIIRVILKLYEQWKNFDERKEMATILSKMPKPKPPPNSEGEQGPNGSQNSSYSQS | binds | binds
GST-rv-cyclin (natural protein) MDIPVEFLTAQEPLSYGHIPPVYWKELLNWIDRILTHNQATPNTWEATHMVLLKLHGTLSFSNPAQLPLVAAACLQIAAKHTEAHSRLADPDYITMLGDGVYTKPSLLLTETMALFIVGGHVGAYTLAACDWLLGSLPFSQAENDLLHPYMYHYIKLSYRHRTPDYHSSPALRAAVVIAAAVKGADLLEMNMLFIMMYHLTHISTASLSLGLTHFTAALQRQINLDFAEAEQREAAERRALLEREREQQLQEARERLDDVMAVLEAEVAITITTATEGTDAEDTSEVDVINVVDPIG | binds | binds
